Experimental data from patent US20240150423A1, “GLP-1 ANALOGUE-MODIFIED DIMERS WITH DIFFERENT CONFIGURATIONS, PREPARATION METHOD THEREOF, AND APPLICATION THEREOF IN TREATMENT OF TYPE II DIABETES” (Nanjing Finepeptide Biopharmaceutical Co.,Ltd, priority 2019, published 2024).
Starred links: 1 amine or outer side, 2 acyl side, 3 side chain; linkers in the order of their positions; H or OH if unused. Groups on a side chain read outwards from the residue. γGlu = O=C(O)[C@H](CCC(=O)[*:2])N[*:1]; oleoyl = alkanoyl with 18 carbons

System: Normal Kunming (KM) mice
Assay: multiple OGTT (mOGTT): hypoglycemic duration after a single administration
Type: in vivo
Details: single injection at the same dose (1.126 nmol), subcutaneous
Source text: • 1. Methods: Normal Kunming (KM) mice (purchased from Guangdong Animal Center) were used for oral glucose tolerance test (OGTT) to obtain the hypoglycemic activity and durability of drug. […] The blood glucose meter and blood glucose test paper were from Bayer […]. The average blood glucose of each group was used as an evaluation standard: When the average blood glucose of experimental group was higher than that of the NaCl control group for two times, the measurement stopped and the hypoglycemic period compared to the blank control group was the effective duration. • 2. Results • 2.1 single OGTTs: after a single administration, the mice were orally administered glucose once and measured the blood glucose from the tail blood at 0, 10, 20, 40, 60 and 120 min. […] The duration of each monomer group was about 1⁄2-1⁄4 of the duration of its corresponding dimer group. […] Therefore, the 2G3 peptide was selected for treating type II diabetes (T2D) in vivo and subsequent experiments.

Row | Molecule | Hypoglycemic (day) (monomeric peptides) | Hypoglycemic duration [days]
1 | His-Ala-Glu-Gly-Thr-Phe-Thr-Ser-Asp-Val-Ser-Cys-Tyr-Leu-Glu-Gly-Gln-Ala-Ala-Lys[N-ϵ-(N-α-oleoyl-L-γ-glutamyl)]-Glu-Phe-Ile-Ala-Trp-Leu-Val-Arg-Gly-Arg-Gly-His-Gly-Glu-Gly-Thr-Phe-Thr-Ser-Asp-Val-Ser-S … (peptide) HAEGTFTSDVSCYLEGQAAK([γGlu-oleoyl])EFIAWLVRGRGHGEGTFTSDVSSYLEGQAAREFIAWLVRGRG-OH | 5 (G9 peptide) day | –
2 | 2G9 series 70: disulfide-linked homodimer of monomer SEQ ID NO: 70 (also: disulfide-linked homodimer, feature at 62: C-terminal) HAEGTFTSDVSCYLEGQAAK([γGlu-oleoyl])EFIAWLVRGRGHGEGTFTSDVSSYLEGQAAREFIAWLVRGRG | – | 11
3 | 2G2 series 10: disulfide-linked homodimer of monomer SEQ ID NO: 10 (not fully specified; disulfide-linked homodimer; Sequence is synthesized; (20)..(20) Xaa is 26Lys[N-e-(N-a-oleoyl-L-g-glutamyl)]; (31)..(31) N-terminal) chain 1: HAEGTFTSDVCSYLEGQAAXEFIAWLVRGRG chain 2: HAEGTFTSDVCSYLEGQAAXEFIAWLVRGRG | – | 8
4 | 2G2 series 18: disulfide-linked homodimer of monomer SEQ ID NO: 18 (not fully specified; disulfide-linked homodimer; Sequence is synthesized; (2)..(2) Xaa is bAla; (20)..(20) Xaa is 26Lys[N-e-(N-a-oleoyl-L-g-glutamyl)]; (31)..(31) N-terminal) chain 1: HXEGTFTSDVCSYLEGQAAXEFIAWLVRGRG chain 2: HXEGTFTSDVCSYLEGQAAXEFIAWLVRGRG | – | 9
5 | 2G2 series 15: disulfide-linked homodimer of monomer SEQ ID NO: 15 (not fully specified; disulfide-linked homodimer; Sequence is synthesized; (2)..(2) Xaa is bAib; (20)..(20) Xaa is 26Lys[N-e-(N-a-oleoyl-L-g-glutamyl)]; (31)..(31) N-terminal) chain 1: HXEGTFTSDVCSYLEGQAAXEFIAWLVRGRG chain 2: HXEGTFTSDVCSYLEGQAAXEFIAWLVRGRG | – | 10
